# Assay results reported in the nanobody polyreactivity screen of Harvey et al. (2022).
# Experiment: yeast display, Sf9 membrane polyspecificity reagent, FACS + sequencing; frameworks hold sequencing errors
# Method in brief: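 Genes from sorted yeast were amplified by colony PCR, read by MiSeq 2 × 250 sequencing and filtered on CDR length. These cells carried a synthetic nanobody library in Saccharomyces cerevisiae BJ5465 and were sorted by FACS into low and high (top ~1%) gates on anti-HA and streptavidin fluorescence. Polyreactivity is labelled according to the gate of origin.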
row,Sequence,polyreactivity (PSR sort gate)
1,QVQLVESGGGLVQAGGSLRLSCAASGFIFVKYAIGWYRTAPGKERELVAAITTSGTGTFYADSVKGRFTISRDNAKNTVYLQMNSLKPEDTAVYYCNALGHPGDDWGQGTQVTVSS,low polyreactivity
2,QVQLVESGGGLVQAGGSLRLSCAASGFIFVKYAMGWYRQAPGKERELVAAISWSGGTTYYSDSVKGRFTISRDNAKNTVYLKMNSLKPEDTAVYYCAAEYYTGYFKYDYWGQGTQVTVSS,high polyreactivity
3,QVQLVESGGGLVQAGGSLRLSCAASGFIFVLYAMGWYRQAPGKERELVAAITWSTGSTYYADSVKGRFTISRDNAKNTVYLQMNSLKPEDTAVYYCAADQYIFGIWFDYWGQGTQVTVSS,high polyreactivity
4,QVQLVESGGGLVQAGGSLRLSCAASGFIFVRNAMGWYRQAPGKERELVAAISSRGGRTYYADSVKGRFTISRDNAKNTVYLQMNSLKPEDTAVYYCNADRDTQGDGYDYWGQGTQVTVSS,high polyreactivity
5,QVQLVESGGGLVQAGGSLRLSCAASGFIFVRNAMGWYRQAPGKERELVAAITGRGGRTYYADSVKGRFTISRDNAKNTVYLQMNSLKPEVTAVYYCAIDSPDDHFGYWGQGTQVTVSS,high polyreactivity
6,QVQLVESGGGLVQAGGSLRLSCAASGFIFVRYAMGWYRPAPGKERELVAVITSGGSTYYADSVKGRFTISRDNAKNTVYLQMNSLKPEDTAVYYCAAQSKRYVRSYSWYDYWGQGTQVTVSS,high polyreactivity
7,QVQLVESGGGLVQAGGSLRLSCAASGFIFVRYAMGWYRQAPGKERELVAAISSGGSTQYADSVKGRFTISRDNAKNTVDLQMNSLKPEDTPVYYCAAAATPGRGGDYWGQGTQVTVSS,high polyreactivity
8,QVQLVESGGGLVQAGGSLRLSCAASGFIFVRYAMGWYRQAPGKEREMVAAISSGGSTKYADSVKGRFTISRDNAKNTVYLQMNSLKPEDTAVYYCAADATPGRGVDYWGQGTQVTVSS,high polyreactivity
9,QVQLVESGGGLVQAGGSLRLSCAASGFIFVSYAMGWYRPAPGKERELVAAIDRIGGITYYADSVKGRFTISRDNAKNTVYLQMNSLKPEDTAVYYCAAAARYATVRVGREYYWGQGTQVTVSS,low polyreactivity
10,QVQLVESGGGLVQAGGSLRLSCAASGFIFVWYAMGWYRQAPGKERELVAAINGGGRTNYADSVKGRFTISRDNAKYTVYLQMNSLKPEDTAVYYGAAVSYYKSYGEFDYWGQGTQVTVSL,high polyreactivity
11,QVQLVESGGGLVQAGGSLRLSCAASGFIFVYNAMGWYRPAPGKERELVAAINGSGDSTYYADSVKGRFTISRDNAKNTVYLQMNSLKPEDTAVYYCAARYKVPLSRYILVLYDYWGQGTQVTVSS,low polyreactivity
12,QVQLVESGGGLVQAGGSLRLSCAASGFIFVYNAMGWYRQAPGKEREFVASITWSGGRTYYADSVKGRFTISRDNAKNTVYLLMNILKPEDTAVYYCATKYPNSQGRRYDYWGKGTQVTVSS,low polyreactivity
13,QVQLVESGGGLVQAGGSLRLSCAASGFIFVYNDMGWYRQAPGKERELVAAISSSGGSTYYADSVKGRFTISRDNAKNTVYLKMNSLKAEDTAVYYCAKTGWNLDYSYSTDGYDYWGQGTLVTVSS,high polyreactivity
14,QVQLVESGGGLVQAGGSLRLSCAASGFIFVYYAMGWYRQAPGKERELVAAINQSGGRTYYADSVKGRFTISRDNAKNTVYLQMNSLKPEDTAVYYCAAESWDLYRYGQKHEYWGQGTQVTVSS,low polyreactivity
15,QVQLVESGGGLVQAGGSLRLSCAASGFIFVYYAMGWYRQAPGKERELVAAISSDGSTNYADSVKGRFTISRDNAKNTVYLQMNSLKPEDTAVYYCNARYVASPSGKRRLIDVDYWGQGTQVTVSS,low polyreactivity
16,QVQLVESGGGLVQAGGSLRLSCAASGFIFVYYGMGWYRQAPGKERELVAAISRSGGSTYYADSVKGRFTISRDNAKNTVYLQMNSLKPEDTAVYYCAARPDRSSQFDSWGQGTQVTVSS,high polyreactivity
17,QVQLVESGGGLVQAGGSLRLSCAASGFIFVYYGMVWYRQAPGKERELVAAISRSGGSTYYADSVKGRFTISRDNAKNTVYLQMNSLKPEDTAVYYCNVVRWYYHPPLTGSRFDYWGHGTQVTVSS,high polyreactivity
18,QVQLVESGGGLVQAGGSLRLSCAASGFIFWFNAMGWYRQAPGKERELVATISWSDTSTYYADSVKGRFTISRDNAKNTVYLQMNSLKPEDTAVYYCATDGRETWLPEYYWGQGTQVTVSS,low polyreactivity
19,QVQLVESGGGLVQAGGSLRLSCAASGFIFWKYAMGWYRQAPGKEREFVAAINWRGDRTYYADSVKGRFTISRDNAKNTVYLQMNSLKPEDTAVYYCAAVVGYYHRRFDYWGQGTQVTVSS,high polyreactivity
20,QVQLVESGGGLVQAGGSLRLSCAASGFIFWPYAMGWYRQAPGKERELVAAITTGGSTNYADSVKGRFTISRDNAKNTVYLQMNSLKPEDTAVYYCAKGYYFGYYEFDYWGQGTQVTVSS,high polyreactivity
21,QVQLVESGGGLVQAGGSLRLSCAASGFIFWQYAMGWYRQAPGKERELVAAISGRGGRTYYADSVKGRFTISRDNAKNTVYLQMNSLKPEDTAVYYCNKVGPLVGGVKYYYWGQGTQVTVSS,high polyreactivity
22,QVQLVESGGGLVQAGGSLRLSCAASGFIFWQYTMAWYRQAPGKERELVAAISFSGGRTYYADSVKGRFTISRDNAKNTVYLQMNSLKPEDTAVYYCAASAVPRQKGFYYWGQGTQVTVSS,high polyreactivity

row,Sequence,polyreactivity (PSR sort gate)
1,QVQLVESGGGLVQAGGSLRLSCAASGFIFWRYAMGWYRQAPGKERELVAAISSGGNTKYADSVKGRFTISRDNAKNTVYLQMNSLKPEDTAVYYCAVLGKYLWSATNRFPGSYDSWGQGTQVTVSS,high polyreactivity
2,QVQLVESGGGLVQAGGSLRLSCAASGFIFWSYAMGWYRQAPGKERELVAAISWSGGRTYYADSVKGRFTISRDNAKNTVYLQMNSLKPEDTAVYYCAAVKRYSSQYPALDYWGQGTQVTVSS,high polyreactivity
3,QVQLVESGGGLVQAGGSLRLSCAASGFIFWYYAMGWYRQAPGKERELVAAISARDGSTYYADSVKGRFTISRDNAKNTVYLQMNSLKPEDTAVYYCNAVQRYPKFRMDYWGQGTQVTVSS,low polyreactivity
4,QVQLVESGGGLVQAGGSLRLSCAASGFIFYAYAMGWSRQAPGKERELVAAISGSGGSTYYADSVKGRFTISRDNAKNTVYLQMNSLKPEDTAVYYCAARSRVSNRSYYYWGQGTQVTVSS,high polyreactivity
5,QVQLVESGGGLVQAGGSLRLSCAASGFIFYDYDMGWYRQAPGKERELVAAITYSGGSTYYADSVKGRFTISRDNAKNTVYLQMNSLKPEDTAVYYCAAVKSRYAEAVDYYYWGLGTQVTVSS,low polyreactivity
6,QVQLVESGGGLVQAGGSLRLSCAASGFIFYDYMGWYRQAPGKERELVAVISYSGSSTYYADSVKGRFTISRDNAKNTVYLQMNSLKPEDTAVYYCAARNVNGWDYDYWGQGTQVTVSS,low polyreactivity
7,QVQLVESGGGLVQAGGSLRLSCAASGFIFYGYAMGWYIQAPGKERELVATISRRGGSTYYADSVKGRFTISRDNAKNTVYLQMNSLKPEDSAVYYCAKRRGTQEPTYVPTRSNGFDYWGHGTQVTVSS,low polyreactivity
8,QVQLVESGGGLVQAGGSLRLSCAASGFIFYHYAMGWYRQAPGKERELVAAISRRTGSTYYADSVKGRFTISRDNAKNTDYLQMNSLKPEDTSVYYCAADAYFIYSRYWYDYWGQGTQVTVSS,high polyreactivity
9,QVQLVESGGGLVQAGGSLRLSCAASGFIFYINAMGWYRQAPGKERELVAAISTSGGSTYYADSVKGRFTISRDNAKNTVYLQMNSLKPEDTAVYYCAAEGSYWYYSYDYWGQGTQVTVSS,high polyreactivity
10,QVQLVESGGGLVQAGGSLRLSCAASGFIFYIYAMGWYRQAPGKERELVAAISRSSARTYYADSVKGRFTISRYNAKNTVYLQMISLKPEDTAVYDCAARYSGQWYRGPQYGYWGQGTQVTVSS,high polyreactivity
11,QVQLVESGGGLVQAGGSLRLSCAASGFIFYKNAMGWYRKAPGKERELVAAISSRGGSTSYADSVKGRFTISRDNAKNTVYLQMNSLKREDTAVYYCAAYPDYSYYYWGQGTQVTVSS,high polyreactivity
12,QVQLVESGGGLVQAGGSLRLSCAASGFIFYKNTMGWYRQAPGKERELVAAITDGDHTNYADSVKGRFTISRDYAKNTVYLQMNSLKPEDTAVYYCAADYAWNYAFGYWGQGTQVTVSS,low polyreactivity
13,QVQLVESGGGLVQAGGSLRLSCAASGFIFYKYAMGWYRQAPGKERELVAAITWRGGRTNYADSVKGRFTISRDYAKNTVYLQMNSLKPEDTAVYYCAADPWSSSYYYSYEYWGQGTQVTVSS,high polyreactivity
14,QVQLVESGGGLVQAGGSLRLSCAASGFIFYLYAMGWYRPAPGKERELVAAISRRGGSTYYADSVKGRFTISRDNAKNTVYLQMNSLKPEDTAVYYCAAYGDDGRDYWGQGTQVTVSS,high polyreactivity
15,QVQLVESGGGLVQAGGSLRLSCAASGFIFYNYAMGWYRQAPGKERELVADINSTGITYYADSVKGRFTISRDNAKNTVYLQMNSLKPEDTAVYYCAKDILTSSYRAYSPFEYGYWGQGTQVTVSS,low polyreactivity
16,QVQLVESGGGLVQAGGSLRLSCAASGFIFYQYAMGWYRQAPGKERELVAVINKSGGRTYYADSVKGRFTISRDNAKNTVYLQMNSLKPEDPAVYYCNAVSKLAVNLDYWGQGTQVTVSS,high polyreactivity
17,QVQLVESGGGLVQAGGSLRLSCAASGFIFYQYTMGWYRQAPGKERELVAAISSGGSTYYADSVKGRFTISRDNAKNTVYLQMNSLKPEDTAVYYCAAVAYGNWYRYYYWGQGTQVTVSS,high polyreactivity
18,QVQLVESGGGLVQAGGSLRLSCAASGFIFYRNTKGWYRQAPGKEREFVAAIRWRGGSTYYADSVKGRFTISRDNAKNTVYLQMNSLNPEDTAVYYCNAPYKQDYDYWGQGTQVTVSS,high polyreactivity
19,QVQLVESGGGLVQAGGSLRLSCAASGFIFYRNTMGWYRQAPGKEREFVAAIRWRGGSTYYADPVKGRFTISRDNAKNTVYLQMNSLKPEDTAVYYCAADTRPGYSGFEYWGQGTQVTVSS,high polyreactivity
20,QVQLVESGGGLVQAGGSLRLSCAASGFIFYRNVMGWYRQAPGKERELVAAISGSGGRTYYADSVKGRFTISRDNAKNTVYLQMNSLKPEDTAVYYCAADASLEGDYWGQGTQVTVSS,high polyreactivity
21,QVQLVESGGGLVQAGGSLRLSCAASGFIFYRYAMGCYRQAPGTEREFVAAISFRDGITYADSVKGRFTISRDNAKNTVYLQMNTLKPEDTAVYYCNAALSQLRRGGLAMDYWGQGTQVTVSS,low polyreactivity
